Reference: article PMC9932102, “SVEP1 is an endogenous ligand for the orphan receptor PEAR1” (Nature Communications, 2023)
Where a chain is given by its changes, count along the chain named. Numbers in names are those of the source.

B1: PEAR1 (analyte of the BLI on biotinylated SVEP1) (receptor)
chain: LNPSDPNTCSFWESFTTTTKESHSRPFSLLPSEPCERPWEGPHTCPQPTVVYRTVYRQVVKTDHRQRLQCCHGFYESRGFCVPLCAQECVHGRCVAPNQCQCVPGWRGDDCSSECAPGMWGPQCDKPCSCGNNSSCDPKSGVCSCPSGLQPPNCLQPCTPGYYGPACQFRCQCHGAPCDPQTGACFCPAERTGPSCDVSCSQGTSGFFCPSTHSCQNGGVFQTPQGSCSCPPGWMGTICSLPCPEGFHGPNCSQECRCHNGGLCDRFTGQCRCAPGYTGDRCREECPVGRFGQDCAETCDCAPDARCFPANGACLCEHGFTGDRCTDRLCPDGFYGLSCQAPCTCDREHSLSCHPMNGECSCLPGWAGLHCNESCPQDTHGPGCQEHCLCLHGGVCQATSGLCQCAPGYTGPHCASLCPPDTYGVNCSARCSCENAIACSPIDGECVCKEGWQRGNCSVPCPPGTWGFSCNASCQCAHEAVCSPQTGACTCTPGWHGAHCQLPCPKGQFGEGCASRCDCDHSDGCDPVHGRCQCQAGWMGARCHLSCPEGLWGVNCSNTCTCKNGGTCLPENGNCVCAPGFRGPSCQRSCQPGRYGKRCVPCKCANHSFCHPSNGTCYCLAGWTGPDCSQPCPPGHWGENCAQTCQCHHGGTCHPQDGSCICPLGWTGHHCLEGCPLGTFGANCSQPCQCGPGEKCHPETGACVCPPGHSGAPCRIGIQEPFTVMPTTPVAYNSL
B2: PEAR1 D343N (receptor, human, UniProt Q5VY43 21-755, looked up)
chain: B1 chain with D323N
notes: PEAR1 with the natural human missense variant p.D343N (rs147639000) in an EGF-like domain of the ectodomain; the construct is not described; as a soluble analyte it is probably an ectodomain (surmise); also called PEAR1 p.D343N; rs147639000

Target: T1, biotinylated SVEP1 (mouse, UniProt A2AVA0 18-3567, biotin on the biotinylation domain (by BirA))
T1 construct: SVEP1, mouse Svep1 cDNA; biotinylation domain inserted in the C-terminus region upstream of the Myc tag; Same Svep1 construct as m1 with the biotinylation domain added; source: 293F cells, co-transfected with secreted BirA and supplemented with biotin, purified (Nuvia IMAC, Superose 6)
T1 sequence (A2AVA0 18-3567): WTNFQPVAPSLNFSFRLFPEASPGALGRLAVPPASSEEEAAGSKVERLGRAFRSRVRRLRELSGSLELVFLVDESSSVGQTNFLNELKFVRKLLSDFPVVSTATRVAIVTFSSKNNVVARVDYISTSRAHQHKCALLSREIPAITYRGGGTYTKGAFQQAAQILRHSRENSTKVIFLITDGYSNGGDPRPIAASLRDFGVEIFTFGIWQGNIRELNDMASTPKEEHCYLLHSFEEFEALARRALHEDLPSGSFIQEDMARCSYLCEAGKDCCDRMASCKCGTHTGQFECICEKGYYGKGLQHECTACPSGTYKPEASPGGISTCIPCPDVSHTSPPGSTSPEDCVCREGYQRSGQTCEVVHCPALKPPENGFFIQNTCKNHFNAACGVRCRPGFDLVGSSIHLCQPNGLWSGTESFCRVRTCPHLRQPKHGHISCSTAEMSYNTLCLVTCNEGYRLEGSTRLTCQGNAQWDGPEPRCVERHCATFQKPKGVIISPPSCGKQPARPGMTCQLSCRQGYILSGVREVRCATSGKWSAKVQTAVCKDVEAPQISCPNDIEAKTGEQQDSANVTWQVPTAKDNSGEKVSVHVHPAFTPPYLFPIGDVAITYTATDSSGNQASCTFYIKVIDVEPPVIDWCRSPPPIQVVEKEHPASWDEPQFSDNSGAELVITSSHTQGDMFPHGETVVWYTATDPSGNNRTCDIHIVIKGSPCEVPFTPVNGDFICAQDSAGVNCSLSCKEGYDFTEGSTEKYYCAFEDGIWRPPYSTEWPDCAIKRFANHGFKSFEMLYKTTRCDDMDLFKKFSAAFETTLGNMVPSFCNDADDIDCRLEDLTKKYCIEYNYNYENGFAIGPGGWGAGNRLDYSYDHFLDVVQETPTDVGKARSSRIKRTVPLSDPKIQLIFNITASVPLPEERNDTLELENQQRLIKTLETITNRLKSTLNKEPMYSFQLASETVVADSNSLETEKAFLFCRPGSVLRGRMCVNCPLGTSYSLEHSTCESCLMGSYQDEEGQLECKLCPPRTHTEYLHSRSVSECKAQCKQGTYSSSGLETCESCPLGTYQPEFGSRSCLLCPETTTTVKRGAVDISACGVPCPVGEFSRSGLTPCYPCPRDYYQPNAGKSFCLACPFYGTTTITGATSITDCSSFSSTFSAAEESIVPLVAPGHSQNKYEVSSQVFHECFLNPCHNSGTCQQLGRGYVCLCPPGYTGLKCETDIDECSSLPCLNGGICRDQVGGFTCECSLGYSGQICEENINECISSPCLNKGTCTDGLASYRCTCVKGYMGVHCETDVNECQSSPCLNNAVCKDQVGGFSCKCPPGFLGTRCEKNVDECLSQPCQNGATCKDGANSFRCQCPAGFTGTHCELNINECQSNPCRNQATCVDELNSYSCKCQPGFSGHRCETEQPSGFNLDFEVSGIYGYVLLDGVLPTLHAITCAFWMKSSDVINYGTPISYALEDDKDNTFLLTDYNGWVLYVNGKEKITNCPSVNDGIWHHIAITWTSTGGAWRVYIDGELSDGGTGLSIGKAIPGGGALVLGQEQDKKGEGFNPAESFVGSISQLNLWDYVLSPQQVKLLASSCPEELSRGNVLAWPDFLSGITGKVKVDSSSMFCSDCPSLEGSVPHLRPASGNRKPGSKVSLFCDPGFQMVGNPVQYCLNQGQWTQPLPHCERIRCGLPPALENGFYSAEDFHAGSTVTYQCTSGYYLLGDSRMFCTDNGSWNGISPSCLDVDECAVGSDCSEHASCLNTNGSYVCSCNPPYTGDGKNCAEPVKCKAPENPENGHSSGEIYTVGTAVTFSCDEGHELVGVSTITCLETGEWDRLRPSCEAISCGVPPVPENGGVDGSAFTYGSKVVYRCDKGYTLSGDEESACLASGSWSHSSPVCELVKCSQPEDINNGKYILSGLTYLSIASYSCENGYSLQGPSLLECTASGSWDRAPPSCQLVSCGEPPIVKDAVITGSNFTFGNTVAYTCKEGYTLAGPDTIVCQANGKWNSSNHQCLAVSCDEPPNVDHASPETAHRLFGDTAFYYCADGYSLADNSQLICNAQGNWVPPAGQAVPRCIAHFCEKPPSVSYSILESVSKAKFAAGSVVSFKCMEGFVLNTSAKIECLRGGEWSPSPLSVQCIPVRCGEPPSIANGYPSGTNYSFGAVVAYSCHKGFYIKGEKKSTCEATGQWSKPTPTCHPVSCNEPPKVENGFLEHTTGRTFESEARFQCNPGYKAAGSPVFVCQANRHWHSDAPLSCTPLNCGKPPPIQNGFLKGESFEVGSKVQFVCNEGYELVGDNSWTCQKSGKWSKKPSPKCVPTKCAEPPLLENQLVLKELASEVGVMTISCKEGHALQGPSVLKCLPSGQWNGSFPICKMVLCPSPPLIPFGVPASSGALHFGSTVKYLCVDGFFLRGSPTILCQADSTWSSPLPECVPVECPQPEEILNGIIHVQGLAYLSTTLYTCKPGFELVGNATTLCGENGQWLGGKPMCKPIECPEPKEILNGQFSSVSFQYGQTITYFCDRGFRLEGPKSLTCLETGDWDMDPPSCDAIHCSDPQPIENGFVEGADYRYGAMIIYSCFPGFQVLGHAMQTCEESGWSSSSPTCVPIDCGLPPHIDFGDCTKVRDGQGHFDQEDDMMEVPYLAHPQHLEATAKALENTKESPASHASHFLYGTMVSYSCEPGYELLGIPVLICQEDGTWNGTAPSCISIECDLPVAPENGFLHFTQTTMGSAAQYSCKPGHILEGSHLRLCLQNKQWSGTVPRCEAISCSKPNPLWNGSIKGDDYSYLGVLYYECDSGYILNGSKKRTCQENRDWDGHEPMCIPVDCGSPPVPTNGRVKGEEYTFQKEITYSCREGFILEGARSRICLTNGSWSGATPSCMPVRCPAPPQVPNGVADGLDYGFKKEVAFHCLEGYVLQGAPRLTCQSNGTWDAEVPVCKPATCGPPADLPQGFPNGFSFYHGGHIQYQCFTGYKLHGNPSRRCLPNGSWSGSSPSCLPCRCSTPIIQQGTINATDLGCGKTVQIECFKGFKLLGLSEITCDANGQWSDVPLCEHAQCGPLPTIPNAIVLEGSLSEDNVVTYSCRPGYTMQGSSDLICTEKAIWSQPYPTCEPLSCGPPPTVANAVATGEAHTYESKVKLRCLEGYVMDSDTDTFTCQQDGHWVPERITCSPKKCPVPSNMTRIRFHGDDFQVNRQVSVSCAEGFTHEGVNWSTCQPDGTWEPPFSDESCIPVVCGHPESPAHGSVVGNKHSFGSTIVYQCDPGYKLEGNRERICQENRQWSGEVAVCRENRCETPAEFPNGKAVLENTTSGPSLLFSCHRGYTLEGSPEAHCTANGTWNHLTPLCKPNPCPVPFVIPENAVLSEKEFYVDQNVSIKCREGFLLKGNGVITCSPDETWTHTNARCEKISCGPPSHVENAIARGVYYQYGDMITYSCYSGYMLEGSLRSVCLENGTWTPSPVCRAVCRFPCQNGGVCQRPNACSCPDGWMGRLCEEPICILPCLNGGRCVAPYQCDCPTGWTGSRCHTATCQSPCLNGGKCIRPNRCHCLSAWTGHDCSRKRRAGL
Assay: BLI; biotinylated SVEP1 loaded on Octet SA biosensors (20 min, about 0.7 nm shift), quenched with biocytin; PEAR1 or PEAR1 D343N 10-90 nM as analyte; 0.01% Tween 20 in calcium-containing DPBS; 15 min association, 15 min dissociation; global 1:1 fit
Details: both partners purified

Binder | Kd [nM]
B1 | 0.708 ± 0.003
B2 | 1.76 ± 0.006
